Source: US20170022268A1 (H LUNDBECK A S, published 2017)
Where no end group is shown, it is not given here. [ ]: non-standard residue; d: D form. pGlu = O=C1CC[C@@H](C(=O)O)N1

T1: pyroglutamated human Aβ3-11 with the addition of a C-terminal cysteine residue, pE-FRHDSGYE-C (human, not fully specified)
T1 construct: The range 3-11 counts on Aβ, not on APP; also called human AβpE3; human AβpE3-11-C
T1 peptide: [pGlu]FRHDSGYEC

T2: pyroglutamated murine Aβ3-11 with the addition of a C-terminal cysteine residue, pE-FGHDSGFE-C (murine, not fully specified)
T2 construct: The range 3-11 counts on Aβ, not on APP; also called murine AβpE3; murine AβpE3-11-C
T2 peptide: [pGlu]FGHDSGFEC


Key:
[1] = target: T1, pyroglutamated human Aβ3-11 with the …; assay: SPR (BIAcore 3000), peptide immobilised on CM5 chip
Method: (§1) Affinity measurements using SPR technology: Binding affinity of anti-Aβ antibodies was determined using BIAcore 3000 (Biacore, Upsula, Sweden). Human and murine pyroglutaminyl and unmodified Aβ peptides with a C-terminal Cystein were immobilized on a CM5 chip using the 2-(2-pyridinyldithio) ethaneamine hydrochloride (PDEA) coupling technology (GE healthcare).

[2] = target: T2, pyroglutamated murine Aβ3-11 with the …; assay: as above
Method: as §1

| Binder | binding result [1] | binding result [2] |
| --- | --- | --- |
| monoclonal antibody 1G11 (antibody, V domains shown, Mouse hybridoma monoclonal antibody directed against murine AβpE3) VH: EVKLEESGGGLVQPGGSMKLSCTASGLTLSDAWMNWVRQSPEKGLEWVAEIRSKAYKHATYYAESVKGRFTISRDDSKSCIYLQMNTLRAEDTGIYYCTRHGSWGPGTLVTVSA VL: DILMSQSPSSMSVSLGDRVSITCRASQGISSKMGWLQQKPGKSSKGLIYHGTKLEDGVPSRFSGSGSGAEYSLTISSLESEDFGDYYCVQYAQFPYTFGGGTKLEIK | no binding |  |
| monoclonal antibody 5C9 (antibody, V domains shown, also called LuAb1h) VH: QIQLQQSGPELVKPGAAVKISCKASGYTFTDYYLNWVKQKPGQGLEWIGWIYPGSGNVKYNEKFKGKATLTADTSSNTAHMQLSSLTSEDTAVYFCTREGLIVYWGQGTLVTVSA VL: DVVLTQTPFTLSVTIGQPASISCKSSQSLLHSNGESYLNWLFQRPGQSPKRLIYAVSKLDSGVPDRFTGSGSGTDFTLKISRVEAEDLGVYYCVQGTHFPFTFGGGTKLEIK |  | no binding |
| monoclonal antibody 2E4 (antibody, V domains shown, Mouse hybridoma monoclonal antibody directed against murine AβpE3) VH: EVKLEESGGGLVQPGGSMKLSCTASGITLNDAWMTWVRQSPEKGLEWVGEIRNKANNHATNYAESVKGRFSISRDDSKGIVYLQMNSLRAEDTGNYYCTRHSYWGPGTLVTVSA VL: DILMTQSPSSMSVSLGDTVSITCHASQGIRNNIGWLQEKPGKSFKGLIYHGTKLEDGIPSRFSGSGSGADYSLTISSLESEDVADYYCVQYDQFPYTFGGGTKLEIK | no binding |  |
